The text below walks through data of US20220235123A1 (UNIVERSITY OF TORONTO, published 2022).

T1: recombinant human vascular endothelial growth factor (hVEGF) 121 (human, UniProt P15692 27-147)
T1 construct: mature; also called human VEGF-A121; hVEGF 121 isoform
T1 sequence (looked up): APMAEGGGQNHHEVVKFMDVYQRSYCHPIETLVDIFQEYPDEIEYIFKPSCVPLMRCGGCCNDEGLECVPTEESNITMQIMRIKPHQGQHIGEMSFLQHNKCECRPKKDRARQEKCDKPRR

B1: Variant 205 (Fab variant of Clone #201) (Fab, V domains shown)
VH: EVQLVESGGGLVQPGGSLRLSCAASGFDLFHYSIHWVRQAPGKGLEWVAYIYPSYGYTYYADSVKGRFTISADTSKNTAYLQMNSLRAEDTAVYYCARHAWYYGWGLDYWGQGTLVTVSS
VL: DIQMTQSPSSLSASVGDRVTITCRASQAAYGRVAWYQQKPGKAPKLLIYKDSELYAGVPSRFSGSRSGTDFTLTISSLQPEDFATYYCQQRGWYLFTFGQGTKVEIKR
B2: Variant 209 (Fab variant of Clone #201) (Fab, V domains shown)
VH: B1 VH
VL: DIQMTQSPSSLSASVGDRVTITCRASQDAAYGRVAWYQQKPGKAPKLLIYKASELYAGVPSRFSGSRSGTDFTLTISSLQPEDFATYYCQQRGWYLFTFGQGTKVEIKR
B3: Variant 206 (Fab variant of Clone #201) (Fab, V domains shown)
VH: B1 VH
VL: B1 VL with K50D, D51A
notes: also called SI; No. 3
B4: Variant 215 (Fab variant of Clone #201) (Fab, V domains shown)
VH: B1 VH with H31D
VL: B1 VL with D51A
B5: Variant 220 (Fab variant of Clone #201) (Fab, V domains shown)
VH: B1 VH
VL: B1 VL with R32D, D51A
B6: Variant 213 (Fab variant of Clone #201) (Fab, V domains shown)
VH: B1 VH with S33D
VL: B1 VL with D51A
B7: Variant 219 (Fab variant of Clone #201) (Fab, V domains shown)
VH: B1 VH
VL: B1 VL with G31D, D51A
notes: also called SI; No. 9
B8: Variant 212 (Fab variant of Clone #201) (Fab, V domains shown)
VH: B1 VH with H35D
VL: B1 VL with D51A
B9: FF03033-5 (Fab, V domains shown)
VH: B1 VH
VL: DIQMTQSPSSLSASVGDRVTITCRASQGVGERVAWYQQKPGKAPKLLIYNASHLAGVPSRFSGSRSGTDFTLTISSLQPEDFATYYCQQRGWYLFTFGQGTKVEIK
notes: fifth generation Fab from the library based on FF0117-A5
B10: FF03033-4 (Fab, V domains shown)
VH: B1 VH
VL: B9 VL with G28E, V29G, G30W, E31D, N50S, H53Q
notes: fifth generation Fab with one residue deleted near the end of CDR-L2; the text says FF03046-1 was made from it by putting the tyrosine back
B11: FF03033-8 (Fab, V domains shown)
VH: B1 VH
VL: B9 VL with G28A, V29A, G30Y, E31G, N50K, H53E
notes: fifth generation Fab with one residue deleted near the end of CDR-L2; the text says FF03046-2 was made from it by putting the tyrosine back
B12: FF03033-2 (Fab, V domains shown)
VH: B1 VH
VL: B9 VL with G28V, V29A, G30F, E31Y, R32N, N50D, H53I, A55N
notes: as for B9
B13: FF03033-6 (Fab, V domains shown)
VH: B1 VH
VL: B9 VL with G28P, V29R, G30E, E31D, N50R, H53T
notes: as for B9
B14: FF03033-3 (Fab, V domains shown)
VH: B1 VH
VL: B9 VL with G28F, E31Y, R32N, N50Q, H53S
notes: as for B9

Where a chain is given by its changes, count along the chain named. Where only a bound is given, the exact number is not on record here.

One assay deals with T2, recombinant human VEGF 165 isoform (human, UniProt P15692 27-191).
T2 construct: mature
T2 sequence (P15692 other isoform, or with tags, fused parts or gaps): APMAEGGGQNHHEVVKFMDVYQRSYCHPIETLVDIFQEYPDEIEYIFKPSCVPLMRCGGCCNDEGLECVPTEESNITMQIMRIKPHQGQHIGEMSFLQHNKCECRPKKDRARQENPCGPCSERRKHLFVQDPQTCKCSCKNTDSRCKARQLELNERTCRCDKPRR
Kind of assay: competitive ELISA in solution, 10 pM hVEGF-165, free VEGF read with Quantikine kit. An excerpt: Kd calculated from the data fitted with a 5 parameter asymmetric model with Prism software.
(An ELISA detects its analyte on a solid surface through an enzyme-linked reagent.)
A word on the Kd: it is the equilibrium constant for the complex coming apart. As for B1, the Kd came to 0.062 nM.

For the molecule B2, the Kd turned out to be 0.028 nM.

As to B3, the dissociation constant (Kd) is 0.014 nM.

As for B4, the dissociation constant Kd amounted to 0.027 nM.

For the molecule B5, the Kd came to 0.026 nM.

On to B6, for which the Kd was determined as 0.091 nM.

Turning to B7, the Kd was found to be 0.012 nM.

Regarding B8, the Kd was 1.28 nM.

The next assay has as its target T1, recombinant human vascular endothelial …. Nature of the assay: SPR, off rate of hVEGF-121 binding. A general note: In SPR one partner is held on a chip, and binding of the other changes the refractive index at the surface.
As usually defined, the koff is the rate constant with which the complex falls apart. Consider B9, for which the koff was 0.000168 s⁻¹.

In the case of B10, the koff is less than 1e-06 s⁻¹.

As to B11, the koff was less than 1e-06 s⁻¹.

As to B12, the koff stood at 0.000236 s⁻¹.

On to B13, for which the koff is 0.000284 s⁻¹.

For B14, the koff was 0.000146 s⁻¹.
